The record followed here is patent publication US5258292A, “Enzymic process for the synthesis of ammonium adipate” (Rhone-Poulenc Chimie, priority 1990, dated 1993).

Data set [1] concerns the target T1, enantioselective amidase (Rhodococcus erythropolis, UniProt P22984).
T1 sequence (P22984 2-521): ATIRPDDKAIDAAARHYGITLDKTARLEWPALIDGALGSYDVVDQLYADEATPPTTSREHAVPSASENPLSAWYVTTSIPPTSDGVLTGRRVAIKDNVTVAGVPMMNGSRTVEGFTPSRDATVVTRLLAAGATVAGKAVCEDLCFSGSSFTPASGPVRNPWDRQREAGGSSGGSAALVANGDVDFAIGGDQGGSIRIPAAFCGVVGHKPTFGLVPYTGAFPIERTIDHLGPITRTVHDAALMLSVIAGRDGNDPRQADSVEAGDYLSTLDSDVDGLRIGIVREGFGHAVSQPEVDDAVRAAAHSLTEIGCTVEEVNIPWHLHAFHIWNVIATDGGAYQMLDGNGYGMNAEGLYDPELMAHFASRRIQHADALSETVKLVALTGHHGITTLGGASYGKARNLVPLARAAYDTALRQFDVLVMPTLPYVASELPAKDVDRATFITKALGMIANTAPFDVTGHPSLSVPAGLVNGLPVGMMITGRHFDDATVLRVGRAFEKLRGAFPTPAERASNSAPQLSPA
Nature of the data set: Substrate preference of the enantioselective amidase. The class given is biochemical, Brevibacterium R 312. The settings on record: compared with the 2-arylpropionamide derivatives, especially 2-phenylpropionamide and 2-(3-benzoylphenyl)propionamide. From the text:
Furthermore, the selectivity of the amidase towards the R enantiomer of HPPAmide is representative of the selectivity towards the S enantiomer of the 2-arylpropionamide derivatives.

The nature of data set [2]: Enantioselective amidase activity with HPPAmide as substrate (HPLC). Type of data set: biochemical. The settings on record: purified enzyme, purity of more than 80%; 1 U = 1 μmol of HPPAcid formed per hour. The method, then:
b--one unit (U) is equivalent to 1 μmol of HPPAcid formed per hour under the conditions described below.
Consequently, the enantioselective enzymic activity was detected by using 2-(4-hydroxyphenoxy)propionamide (HPPAmide) as the substrate. The reaction is carried out at 25° C., with shaking, in a 50 mM sodium phosphate buffer, pH 7.0, in the presence of Brevibacterium R 312, and is stopped by the addition of a 55/40/5 (v/v) mixture of 0.05 M phosphoric acid, acetonitrile and 1 N HCl. The culture is then centrifuged and the supernatant is analyzed by reversed-phase HPLC (Hibar-Merck RP-18; 5 μm). Elution is effected with an 85/15 (v/v) solution of 0.005 M phosphoric acid and acetonitrile and the respective concentrations of HPPAmide and HPPAcid are measured by the position of the elution peaks and compared with a standard. The enantiomeric excess, defined as the ratio (R-S)/(R+S) x 100, in which R and S are the respective concentrations of the R and S enantiomers of the HPPAcid, is deduced either from polarimetric measurements (using the sodium absorption at 589 nm) or from HPLC analysis on a chiral column.

Data set [3] is described as follows: Assay of the enzymic activity: hydrolysis of 2-phenylpropionamide (HPLC). The class given is biochemical. The settings on record: enzyme purified to homogeneity; 1 unit = 1 μmol of 2-phenylpropionamide hydrolyzed per h; 30° C., pH 7.5. The procedure: The fraction containing the activity is incubated for 30 min at 30° C. in 500 μl of 0.1 M Tris/HCl buffer, pH 7.5, containing 5 mM DTT and 18.1 mM 2-phenylpropionamide. After incubation, 2 ml of an acetonitrile/1 N HCl mixture (90/10) and then 2 ml of a 50 mM H3 PO4 /CH3 CN mixture (75/25) are added to the incubation mixture. After centrifugation at 5000 g for 10 min, an aliquot of the supernatant is injected into an HPLC apparatus for assay of the reaction products.
Column: Nucleosil 5-C18 25 cm
One activity unit is defined as the amount of enzyme required to hydrolyze 1 μmol of 2-phenylpropionamide per h.

For the molecule `CC(Oc1ccc(O)cc1)C(N)=O` (racemic) [R,S-2-(4-Hydroxyphenoxy)propionamide], in data set [1], the “substrate quality for the enantioselective amidase” value is “better substrate”.

B1: enantioselective amidase of Brevibacterium R 312: enzyme purified from Brevibacterium R 312, purity of more than 80%; sequence in FIG. 9 (protein)
chain: MATIRPDDKAIDAAARHYGITLDKTARLEWPALIDGALGSYDVVDQLYADEATPPTTSAEHAVPSASENPLSAWYVTTSIPPTSDGVLTGRRVAIKDNVTVAGVPMMNGSRTVEGFTPSRDATVVTRLLAAGATVAGKAVCEDLCFSGSSFTPASGPVRNPWDRQREAGGSSGGSAALVANGDVDFAIGGDQGGSIRIPAAFCGVVGHKPTFGLVPYTGAFPIERTIDHLGPITRTVHDAALMLSVIAGRDGNDPRQADSVEAGDYLSTLDSDVDGLRIGIVREGFGHAVSQPEVDDAVRAAAHSLTEIGCTVEEVNIPWHLHAFHIWNVIATDGGAYQMLDGNGYGMNAEGLYDPELMAHFASRRIQHADALSETVKLVALTGHHGITTLGGASYGKARNLVPLARAAYDTALRQFDVLVMPTLPYVASELPAKDVDRATFITKALGMIANTAPFDVTGHPSLSVPAGLVNGLPVGMMITGRHFDDATVLRVGRAFEKLRGAFPTPAERASNSAPQLSPA
As for B1, the specific activity in data set [2] stood at 815 U/mg.

B2: enantioselective amidase of a Rhodococcus: enzyme purified to homogeneity from a Rhodococcus; sequence in FIG. 14 (protein)
chain: GLHELTLAQVAAKIENKELSPVELLDVILARVAEIEPKISAFVTITADSARKAARLAADEIAGGHYRGPLHGVPIGLKDLFEVAGVPNTASSRVRADYIPSSDGAAVEKLTAGGAVMIGKTHTHEFAYGAITPTTRNPWDPTRTPGGSSGGTAAALAAGLIFAGMGTDTGGSIRIPAAVCGTVGLKPTYGRVSRRGVTSLSWSLDHAGPLARTVEDAAIMLNQIAGYDRADPATVDVPVPDYAAALTGDVRGLRIGVPTNFYTDNVHPEVAAAADAAVAQLAHLGAVVREVKIPMAEVIVPTEWSLLVPEASAYHQQMLRERADHYTDETRTFLEAGELVPATDYIKALRVRTLIQAAFRELFQDIDVLIAPTVSSPALPLDDLEVTWPDGTSEGGTITYVRLSAPGNVTGLPALSVPSGFTEQGLPTGIQIIGRPFDEETVLNVGHAYEGCTDWPRLAPL
Take B2: in data set [3], the specific activity was 988 U/mg of protein.
